In publication PMC3923783, “Competitive and Cooperative Interactions Mediate RNA Transfer from Herpesvirus Saimiri ORF57 to the Mammalian Export Adaptor ALYREF” (PLoS Pathogens, 2014):

B1: ORF57^8–120 (domain or fragment)
chain: GISSDDDFDSSDSSSDEEESDTSPQIMKSDVTMASPPSTPEPSPDVSASTSNLKRERQRSPITWEHQSPLSRVYRSPSPMRFGKRPRISSNSTSRSCKTSWADRVREAAAQRR
notes: Herpesvirus saimiri (HVS) ORF57 protein, residues 8-120; Construct of the NMR and fluorescence experiments; It may be the same construct as the hexa-histidine ORF57^8–120; also called ORF57 aa8–120; ORF57(aa8–120); source: E. coli BL21-RP, purified (gel filtration), as described previously [30]
B2: ALYREF fragment aa1–155 (ALYREF^1–155) (domain or fragment)
chain: not shown
notes: source: E. coli BL21-RP, purified (gel filtration), as described previously [30]

What was measured:
[1] = target: B2; assay: other fluorescence titration; blue shift of tryptophan emission (barycentric mean) with rising concentrations of equimolar ALYREF^1–155 and ORF57^8–120; buffer F (20 mM phosphate pH 6.2, 50 mM NaCl, 50 mM L-Arg+L-Glu, 5 mM EDTA, 1 mM TCEP); apparent Kd, quadratic equation or DynaFit; details: both partners purified
ORF57^8–120 = target: B1; assay: other fluorescence titration; 14merS RNA titrated into 10 µM 1:1 ALYREF^1–155 - ORF57^8–120 mixture in buffer F; three-equation equilibrium model (DynaFit); the constant of ALYREF for the ORF57-RNA complex inferred from the thermodynamic cycle; apparent; details: both partners purified

B1
Kd [1]: 2560 ± 200 nM

B2
KD of ALYREF for the ORF57-RNA (14merS) complex, inferred from the thermodynamic cycle (ORF57^8–120): 520 nM
